Data published in the supplement of paper PMC7125110.
± gives the standard error. For part of these data: Fewer inactive variants are shown than the library holds.

B1: glmS ribozyme (parent)
chain: AUAAAAGCGCCAGAACUACAGAAAUGUAGUUGACGAGGAGGAGGUUUAUCGAAUUUUCGGCGGAUGCCUCCAAA

Assays:
Settings in all cases: with glucosamine-6-phosphate
glucosamine-6-phosphate [1] = variants of: B1; assay: kcat; higher = faster cleavage; RNA array
Summary of the method: (§1)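 Using a hybridised Cy3 probe at 37 °C, barcoded ribozyme variants transcribed in situ by E. coli RNA polymerase on sequenced MiSeq chips were monitored across tiles imaged over ~14 h. The flow contained glucosamine-6-phosphate from 40 μM to 10 mM in HEPES/KCl/Mg(OAc)2 buffer. Signals were normalised to baseline and to non-cleaving reference variants before per-tile medians were fit to one- or two-exponential decays to yield kobs. Weighted Michaelis–Menten fits across concentrations gave kcat and KM.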

glucosamine-6-phosphate [2] = variants of: B1; assay: KM; higher = weaker cofactor use; RNA array
Summary of the method: as §1

glucosamine-6-phosphate [3] = variants of: B1; assay: self-cleavage kobs at 40 uM GlcN6P; higher = faster cleavage; RNA array
Summary of the method: as §1

glucosamine-6-phosphate [4] = variants of: B1; assay: self-cleavage kobs at 160 uM GlcN6P; higher = faster cleavage; RNA array
Summary of the method: as §1

glucosamine-6-phosphate [5] = variants of: B1; assay: self-cleavage kobs at 640 uM GlcN6P; higher = faster cleavage; RNA array
Summary of the method: as §1

glucosamine-6-phosphate [6] = variants of: B1; assay: self-cleavage kobs at 2500 uM GlcN6P; higher = faster cleavage; RNA array
Summary of the method: as §1

glucosamine-6-phosphate [7] = variants of: B1; assay: self-cleavage kobs at 10000 uM GlcN6P; higher = faster cleavage; RNA array
Summary of the method: as §1

Variant | kcat (glucosamine-6-phosphate [1]) | KM (glucosamine-6-phosphate [2]) | self-cleavage kobs at 40 uM GlcN6P (glucosamine-6-phosphate [3]) | self-cleavage kobs at 160 uM GlcN6P (glucosamine-6-phosphate [4]) | self-cleavage kobs at 640 uM GlcN6P (glucosamine-6-phosphate [5]) | self-cleavage kobs at 2500 uM GlcN6P (glucosamine-6-phosphate [6]) | self-cleavage kobs at 10000 uM GlcN6P (glucosamine-6-phosphate [7])
A12C A15C | 0.00209 ± 0.00064 s⁻¹ | 2000 ± 880 µM | 6.78e-05 ± 1.4e-05 s⁻¹ | 0.000151 ± 2.5e-05 s⁻¹ | 0.000451 ± 9e-05 s⁻¹ | 0.000976 ± 0.00019 s⁻¹ | 0.00216 ± 0.00038 s⁻¹
A12G C16U | 0.00221 ± 0.00096 s⁻¹ | – | – | 4.12e-05 ± 9.2e-06 s⁻¹ | 0.000179 ± 2.1e-05 s⁻¹ | 0.00036 ± 4.1e-05 s⁻¹ | 0.00119 ± 0.0001 s⁻¹
A12U A36U C68A | 1.17e-05 ± 3.8e-06 s⁻¹ | – | – | – | – | – | –
C11U U54C U56C | 0.000628 ± 6.2e-05 s⁻¹ | 8410 ± 1200 µM | – | – | 4.18e-05 ± 1.9e-05 s⁻¹ | 0.000151 ± 4.7e-05 s⁻¹ | 0.000337 ± 9.5e-05 s⁻¹
A12U C16A A33U A36C G38A G62A U69A C71U | 2.12e-05 ± 1.1e-06 s⁻¹ | – | – | – | – | – | –
A12U A14U | 0.00461 ± 0.0012 s⁻¹ | 2000 ± 750 µM | 0.00011 ± 1.2e-05 s⁻¹ | 0.000269 ± 5.6e-05 s⁻¹ | 0.00119 ± 0.00018 s⁻¹ | 0.00188 ± 0.00031 s⁻¹ | 0.00449 ± 0.00046 s⁻¹
A12U A14C | 0.00505 ± 0.0013 s⁻¹ | 1630 ± 560 µM | 0.000142 ± 1.3e-05 s⁻¹ | 0.000429 ± 6.9e-05 s⁻¹ | 0.00117 ± 0.00016 s⁻¹ | 0.00261 ± 0.00038 s⁻¹ | 0.00546 ± 0.00066 s⁻¹
A12C G66U | 0.00165 ± 0.00058 s⁻¹ | 1990 ± 990 µM | 5.83e-05 ± 1.3e-05 s⁻¹ | 9.73e-05 ± 1.3e-05 s⁻¹ | 0.000586 ± 6.9e-05 s⁻¹ | 0.000865 ± 0.00014 s⁻¹ | 0.00133 ± 0.0002 s⁻¹
A12C G13A | 0.000473 ± 0.00016 s⁻¹ | – | – | – | 6.42e-05 ± 1.2e-05 s⁻¹ | 0.000302 ± 5.1e-05 s⁻¹ | 0.00032 ± 5.7e-05 s⁻¹
A12C A52U | 0.000397 ± 5.1e-05 s⁻¹ | 2490 ± 570 µM | – | – | 8.66e-05 ± 8.4e-06 s⁻¹ | 0.000188 ± 1.7e-05 s⁻¹ | 0.000329 ± 3.4e-05 s⁻¹
G13A C67G | 2.66e-05 ± 2.6e-06 s⁻¹ | – | < 1e-05 s⁻¹ | – | 2.71e-05 ± 1.2e-05 s⁻¹ | 3.63e-05 ± 1.7e-05 s⁻¹ | 2.48e-05 ± 6.5e-06 s⁻¹
A12G C70A | 0.000118 ± 8.6e-06 s⁻¹ | 1110 ± 270 µM | – | – | 4.35e-05 ± 7.9e-06 s⁻¹ | 7.34e-05 ± 1.3e-05 s⁻¹ | 0.000108 ± 9.4e-06 s⁻¹
A12U G66U | 0.00516 ± 0.00082 s⁻¹ | 1550 ± 380 µM | 0.000146 ± 1.8e-05 s⁻¹ | 0.000589 ± 0.0001 s⁻¹ | 0.00128 ± 0.00014 s⁻¹ | 0.00319 ± 0.00044 s⁻¹ | 0.00479 ± 0.00055 s⁻¹
A12C G13U C71G | 1.5e-05 ± 5.4e-06 s⁻¹ | – | – | – | – | – | –
C11U U31A | 0.00134 ± 0.00062 s⁻¹ | – | – | 9.69e-05 ± 2.6e-05 s⁻¹ | 0.000376 ± 6.7e-05 s⁻¹ | 0.000431 ± 0.00012 s⁻¹ | 0.00146 ± 0.00025 s⁻¹
C11U U31C | 0.000563 ± 7.8e-05 s⁻¹ | 1620 ± 460 µM | – | 2.97e-05 ± 1.5e-05 s⁻¹ | 0.000179 ± 2.3e-05 s⁻¹ | 0.000364 ± 5.9e-05 s⁻¹ | 0.000465 ± 5.5e-05 s⁻¹
C11U U31G | 0.00667 ± 0.0031 s⁻¹ | – | 0.000105 ± 2.5e-05 s⁻¹ | 0.000255 ± 6.7e-05 s⁻¹ | 0.000818 ± 0.00016 s⁻¹ | 0.00175 ± 0.0004 s⁻¹ | 0.00565 ± 0.00097 s⁻¹
A12U G37A G40C | 0.00099 ± 0.00024 s⁻¹ | 4220 ± 1400 µM | – | 2.74e-05 ± 1.2e-05 s⁻¹ | 0.000134 ± 1.7e-05 s⁻¹ | 0.000386 ± 9.8e-05 s⁻¹ | 0.000686 ± 0.00012 s⁻¹
A12U | 0.0933 ± 0.014 s⁻¹ | 1340 ± 230 µM | 0.00275 ± 4.9e-05 s⁻¹ | 0.00899 ± 0.00054 s⁻¹ | 0.0283 ± 0.0012 s⁻¹ | 0.049 ± 0.0042 s⁻¹ | 0.0963 ± 0.0052 s⁻¹
A12G | 0.00143 ± 6.1e-05 s⁻¹ | 4240 ± 270 µM | 1.01e-05 ± 1.5e-06 s⁻¹ | 5.14e-05 ± 1.6e-06 s⁻¹ | 0.000189 ± 3.5e-06 s⁻¹ | 0.000587 ± 2.8e-05 s⁻¹ | 0.001 ± 1.6e-05 s⁻¹
A12C | 0.042 ± 0.0066 s⁻¹ | 2170 ± 410 µM | 0.000794 ± 1.3e-05 s⁻¹ | 0.00261 ± 0.00016 s⁻¹ | 0.00858 ± 0.00027 s⁻¹ | 0.0195 ± 0.00085 s⁻¹ | 0.0393 ± 0.0013 s⁻¹
A12C C16A | 0.00127 ± 0.00038 s⁻¹ | 4920 ± 2400 µM | – | 6.12e-05 ± 1.6e-05 s⁻¹ | 0.000172 ± 2.7e-05 s⁻¹ | 0.000339 ± 5.1e-05 s⁻¹ | 0.000927 ± 9.9e-05 s⁻¹
A12C G37U | < 1e-05 s⁻¹ | – | < 1e-05 s⁻¹ | – | – | – | –
A12U C61A G63C C70U | 3.89e-05 ± 1.1e-05 s⁻¹ | – | – | 3.45e-05 ± 1.3e-05 s⁻¹ | – | 4.79e-05 ± 1.7e-05 s⁻¹ | –
A12C A39G | 0.0192 ± 0.0069 s⁻¹ | 2230 ± 1000 µM | 0.000367 ± 4.7e-05 s⁻¹ | 0.00113 ± 0.00026 s⁻¹ | 0.00513 ± 0.0012 s⁻¹ | 0.00799 ± 0.0015 s⁻¹ | 0.0245 ± 0.0049 s⁻¹
C11U G40A | 0.000548 ± 0.00025 s⁻¹ | – | – | – | 8.42e-05 ± 2.2e-05 s⁻¹ | 0.000128 ± 3e-05 s⁻¹ | 0.000374 ± 6.8e-05 s⁻¹
A12U G40C | 0.00584 ± 0.0009 s⁻¹ | 1420 ± 310 µM | 0.000175 ± 2e-05 s⁻¹ | 0.000567 ± 9.5e-05 s⁻¹ | 0.0014 ± 0.00029 s⁻¹ | 0.00529 ± 0.0011 s⁻¹ | 0.00509 ± 0.00057 s⁻¹
C11U U47C | 8.97e-05 ± 5.3e-06 s⁻¹ | 1150 ± 290 µM | – | – | 4.05e-05 ± 1.7e-05 s⁻¹ | 5.91e-05 ± 8.5e-06 s⁻¹ | 8.15e-05 ± 8.5e-06 s⁻¹
A12G U56G | 0.000904 ± 9.3e-05 s⁻¹ | 6610 ± 950 µM | – | – | 8.35e-05 ± 8.6e-06 s⁻¹ | 0.00024 ± 2.2e-05 s⁻¹ | 0.000553 ± 5.7e-05 s⁻¹
